The results in this text go back to US20250218531A1 (ABSCI, published 2025).

Where “and” joins values, the source holds several entries; their conditions need not be identical. Equal entries are not always repeated.

B1: Trastuzumab HCDR3 variant AGSVAEGWYHYRD (Fab, V domains shown)
VH: EVQLVESGGGLVQPGGSLRLSCAASGFNIKDTYIHWVRQAPGKGLEWVARIYPTNGYTRYADSVKGRFTISADTSKNTAYLQMNSLRAEDTAVYYCAGSVAEGWYHYRDWGQGTLVTVSS
VL: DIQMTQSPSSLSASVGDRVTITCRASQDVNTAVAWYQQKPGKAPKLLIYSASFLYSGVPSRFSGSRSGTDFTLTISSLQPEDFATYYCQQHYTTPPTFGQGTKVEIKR
B2: Trastuzumab HCDR3 variant AQNWDRGSYFYTY (Fab, V domains shown)
VH: EVQLVESGGGLVQPGGSLRLSCAASGFNIKDTYIHWVRQAPGKGLEWVARIYPTNGYTRYADSVKGRFTISADTSKNTAYLQMNSLRAEDTAVYYCAQNWDRGSYFYTYWGQGTLVTVSS
VL: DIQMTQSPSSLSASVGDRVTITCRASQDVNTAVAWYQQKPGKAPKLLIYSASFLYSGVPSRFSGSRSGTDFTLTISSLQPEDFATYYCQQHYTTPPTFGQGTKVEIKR
B3: Trastuzumab HCDR3 variant ARDGGMYRYGLYG (Fab, V domains shown)
VH: EVQLVESGGGLVQPGGSLRLSCAASGFNIKDTYIHWVRQAPGKGLEWVARIYPTNGYTRYADSVKGRFTISADTSKNTAYLQMNSLRAEDTAVYYCARDGGMYRYGLYGWGQGTLVTVSS
VL: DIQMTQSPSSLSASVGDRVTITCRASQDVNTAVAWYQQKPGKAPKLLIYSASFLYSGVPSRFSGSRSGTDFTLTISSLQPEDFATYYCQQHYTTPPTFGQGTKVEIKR
B4: Trastuzumab HCDR3 variant ARDGYPFYSGMDY (Fab, V domains shown)
VH: EVQLVESGGGLVQPGGSLRLSCAASGFNIKDTYIHWVRQAPGKGLEWVARIYPTNGYTRYADSVKGRFTISADTSKNTAYLQMNSLRAEDTAVYYCARDGYPFYSGMDYWGQGTLVTVSS
VL: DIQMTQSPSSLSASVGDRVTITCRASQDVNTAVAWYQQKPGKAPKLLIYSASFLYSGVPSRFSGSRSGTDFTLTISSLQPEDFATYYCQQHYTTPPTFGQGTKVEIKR
B5: Trastuzumab HCDR3 variant ARGYYQDSQSWGY (Fab, V domains shown)
VH: EVQLVESGGGLVQPGGSLRLSCAASGFNIKDTYIHWVRQAPGKGLEWVARIYPTNGYTRYADSVKGRFTISADTSKNTAYLQMNSLRAEDTAVYYCARGYYQDSQSWGYWGQGTLVTVSS
VL: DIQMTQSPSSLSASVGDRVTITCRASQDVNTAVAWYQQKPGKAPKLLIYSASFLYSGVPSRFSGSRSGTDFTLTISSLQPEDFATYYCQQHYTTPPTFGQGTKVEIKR
B6: Trastuzumab HCDR3 variant ARPSYDVGGDMLF (Fab, V domains shown)
VH: EVQLVESGGGLVQPGGSLRLSCAASGFNIKDTYIHWVRQAPGKGLEWVARIYPTNGYTRYADSVKGRFTISADTSKNTAYLQMNSLRAEDTAVYYCARPSYDVGGDMLFWGQGTLVTVSS
VL: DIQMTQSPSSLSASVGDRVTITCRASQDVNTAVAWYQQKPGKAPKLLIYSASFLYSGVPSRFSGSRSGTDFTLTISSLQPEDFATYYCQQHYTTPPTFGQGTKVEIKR
B7: Trastuzumab HCDR3 variant APWGTYRYGYFDH (Fab, V domains shown)
VH: EVQLVESGGGLVQPGGSLRLSCAASGFNIKDTYIHWVRQAPGKGLEWVARIYPTNGYTRYADSVKGRFTISADTSKNTAYLQMNSLRAEDTAVYYCAPWGTYRYGYFDHWGQGTLVTVSS
VL: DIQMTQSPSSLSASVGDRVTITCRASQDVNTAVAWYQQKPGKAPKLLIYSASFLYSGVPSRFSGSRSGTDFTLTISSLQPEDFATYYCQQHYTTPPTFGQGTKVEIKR
B8: Trastuzumab HCDR3 variant AKFERGYYSFDFG (Fab, V domains shown)
VH: EVQLVESGGGLVQPGGSLRLSCAASGFNIKDTYIHWVRQAPGKGLEWVARIYPTNGYTRYADSVKGRFTISADTSKNTAYLQMNSLRAEDTAVYYCAKFERGYYSFDFGWGQGTLVTVSS
VL: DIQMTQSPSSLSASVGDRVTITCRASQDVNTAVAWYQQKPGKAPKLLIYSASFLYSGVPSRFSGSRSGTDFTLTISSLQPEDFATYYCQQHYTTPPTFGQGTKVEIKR
B9: Trastuzumab HCDR3 variant ARNYYYGAYYFDY (Fab, V domains shown)
VH: EVQLVESGGGLVQPGGSLRLSCAASGFNIKDTYIHWVRQAPGKGLEWVARIYPTNGYTRYADSVKGRFTISADTSKNTAYLQMNSLRAEDTAVYYCARNYYYGAYYFDYWGQGTLVTVSS
VL: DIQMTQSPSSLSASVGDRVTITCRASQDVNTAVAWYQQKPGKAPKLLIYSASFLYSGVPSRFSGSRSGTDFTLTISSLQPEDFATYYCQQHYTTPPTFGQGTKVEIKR
B10: Trastuzumab HCDR3 variant ARDSPYYGSLYLY (Fab, V domains shown)
VH: EVQLVESGGGLVQPGGSLRLSCAASGFNIKDTYIHWVRQAPGKGLEWVARIYPTNGYTRYADSVKGRFTISADTSKNTAYLQMNSLRAEDTAVYYCARDSPYYGSLYLYWGQGTLVTVSS
VL: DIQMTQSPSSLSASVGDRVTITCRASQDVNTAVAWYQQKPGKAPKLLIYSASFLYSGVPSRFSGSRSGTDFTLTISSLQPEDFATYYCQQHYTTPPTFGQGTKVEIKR
B11: Trastuzumab HCDR3 variant APWWSGWYYFFDT (Fab, V domains shown)
VH: EVQLVESGGGLVQPGGSLRLSCAASGFNIKDTYIHWVRQAPGKGLEWVARIYPTNGYTRYADSVKGRFTISADTSKNTAYLQMNSLRAEDTAVYYCAPWWSGWYYFFDTWGQGTLVTVSS
VL: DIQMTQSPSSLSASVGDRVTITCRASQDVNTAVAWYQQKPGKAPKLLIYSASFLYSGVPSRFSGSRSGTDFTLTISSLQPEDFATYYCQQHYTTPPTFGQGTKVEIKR
B12: Trastuzumab HCDR3 variant ARAGGTSISLGHG (Fab, V domains shown)
VH: EVQLVESGGGLVQPGGSLRLSCAASGFNIKDTYIHWVRQAPGKGLEWVARIYPTNGYTRYADSVKGRFTISADTSKNTAYLQMNSLRAEDTAVYYCARAGGTSISLGHGWGQGTLVTVSS
VL: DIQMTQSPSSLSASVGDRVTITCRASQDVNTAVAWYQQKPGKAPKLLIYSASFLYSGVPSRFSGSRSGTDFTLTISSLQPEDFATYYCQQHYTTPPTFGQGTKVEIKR
B13: Trastuzumab HCDR3 variant AGYEGYGLYPFAY (Fab, V domains shown)
VH: EVQLVESGGGLVQPGGSLRLSCAASGFNIKDTYIHWVRQAPGKGLEWVARIYPTNGYTRYADSVKGRFTISADTSKNTAYLQMNSLRAEDTAVYYCAGYEGYGLYPFAYWGQGTLVTVSS
VL: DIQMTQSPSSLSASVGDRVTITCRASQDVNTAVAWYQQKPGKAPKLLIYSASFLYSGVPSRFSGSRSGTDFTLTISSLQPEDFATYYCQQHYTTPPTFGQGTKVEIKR
B14: Trastuzumab HCDR3 variant AIWSMYDVGYYPF (Fab, V domains shown)
VH: EVQLVESGGGLVQPGGSLRLSCAASGFNIKDTYIHWVRQAPGKGLEWVARIYPTNGYTRYADSVKGRFTISADTSKNTAYLQMNSLRAEDTAVYYCAIWSMYDVGYYPFWGQGTLVTVSS
VL: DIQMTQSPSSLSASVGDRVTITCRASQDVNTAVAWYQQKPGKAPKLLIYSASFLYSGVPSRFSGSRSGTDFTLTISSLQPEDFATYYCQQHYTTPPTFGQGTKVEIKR
B15: Trastuzumab HCDR3 variant ARFSGYGAYDYAY (Fab, V domains shown)
VH: EVQLVESGGGLVQPGGSLRLSCAASGFNIKDTYIHWVRQAPGKGLEWVARIYPTNGYTRYADSVKGRFTISADTSKNTAYLQMNSLRAEDTAVYYCARFSGYGAYDYAYWGQGTLVTVSS
VL: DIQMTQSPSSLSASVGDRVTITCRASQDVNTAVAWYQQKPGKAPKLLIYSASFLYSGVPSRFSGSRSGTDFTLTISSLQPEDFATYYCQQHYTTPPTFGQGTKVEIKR
B16: Trastuzumab HCDR3 variant ARSGYPGYGSFAY (Fab, V domains shown)
VH: EVQLVESGGGLVQPGGSLRLSCAASGFNIKDTYIHWVRQAPGKGLEWVARIYPTNGYTRYADSVKGRFTISADTSKNTAYLQMNSLRAEDTAVYYCARSGYPGYGSFAYWGQGTLVTVSS
VL: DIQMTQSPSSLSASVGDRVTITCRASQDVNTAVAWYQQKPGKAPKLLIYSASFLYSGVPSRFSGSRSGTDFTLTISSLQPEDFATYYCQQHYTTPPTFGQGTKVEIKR
B17: Trastuzumab HCDR3 variant ARFGGAGGYYFDY (Fab, V domains shown)
VH: EVQLVESGGGLVQPGGSLRLSCAASGFNIKDTYIHWVRQAPGKGLEWVARIYPTNGYTRYADSVKGRFTISADTSKNTAYLQMNSLRAEDTAVYYCARFGGAGGYYFDYWGQGTLVTVSS
VL: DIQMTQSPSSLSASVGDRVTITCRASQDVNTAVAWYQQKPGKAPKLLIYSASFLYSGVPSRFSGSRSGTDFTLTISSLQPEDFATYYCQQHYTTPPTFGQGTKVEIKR
B18: Trastuzumab HCDR3 variant ARSYAFLYGRMDY (Fab, V domains shown)
VH: EVQLVESGGGLVQPGGSLRLSCAASGFNIKDTYIHWVRQAPGKGLEWVARIYPTNGYTRYADSVKGRFTISADTSKNTAYLQMNSLRAEDTAVYYCARSYAFLYGRMDYWGQGTLVTVSS
VL: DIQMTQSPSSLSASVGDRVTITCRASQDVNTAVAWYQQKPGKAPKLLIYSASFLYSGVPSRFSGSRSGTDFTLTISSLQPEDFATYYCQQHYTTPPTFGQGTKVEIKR
B19: Trastuzumab HCDR3 variant ARDVYVGSPVFDY (Fab, V domains shown)
VH: EVQLVESGGGLVQPGGSLRLSCAASGFNIKDTYIHWVRQAPGKGLEWVARIYPTNGYTRYADSVKGRFTISADTSKNTAYLQMNSLRAEDTAVYYCARDVYVGSPVFDYWGQGTLVTVSS
VL: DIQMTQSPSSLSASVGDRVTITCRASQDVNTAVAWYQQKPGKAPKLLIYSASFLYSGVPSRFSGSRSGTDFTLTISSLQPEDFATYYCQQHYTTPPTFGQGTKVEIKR
B20: Trastuzumab HCDR3 variant ARGHYSLGYSFDF (Fab, V domains shown)
VH: EVQLVESGGGLVQPGGSLRLSCAASGFNIKDTYIHWVRQAPGKGLEWVARIYPTNGYTRYADSVKGRFTISADTSKNTAYLQMNSLRAEDTAVYYCARGHYSLGYSFDFWGQGTLVTVSS
VL: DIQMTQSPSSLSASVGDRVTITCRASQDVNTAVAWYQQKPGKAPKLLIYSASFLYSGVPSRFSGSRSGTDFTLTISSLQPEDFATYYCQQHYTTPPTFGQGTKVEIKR
B21: Trastuzumab HCDR3 variant AKFHWGEDWLSDN (Fab, V domains shown)
VH: EVQLVESGGGLVQPGGSLRLSCAASGFNIKDTYIHWVRQAPGKGLEWVARIYPTNGYTRYADSVKGRFTISADTSKNTAYLQMNSLRAEDTAVYYCAKFHWGEDWLSDNWGQGTLVTVSS
VL: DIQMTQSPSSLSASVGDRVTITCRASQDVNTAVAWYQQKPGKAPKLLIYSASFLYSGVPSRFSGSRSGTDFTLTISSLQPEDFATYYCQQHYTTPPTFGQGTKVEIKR
B22: Trastuzumab HCDR3 variant AQYGRGGYWYFDY (Fab, V domains shown)
VH: EVQLVESGGGLVQPGGSLRLSCAASGFNIKDTYIHWVRQAPGKGLEWVARIYPTNGYTRYADSVKGRFTISADTSKNTAYLQMNSLRAEDTAVYYCAQYGRGGYWYFDYWGQGTLVTVSS
VL: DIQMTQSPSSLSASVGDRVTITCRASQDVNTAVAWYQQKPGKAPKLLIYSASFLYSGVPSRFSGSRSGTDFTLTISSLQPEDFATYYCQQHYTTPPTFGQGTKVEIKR
B23: Trastuzumab HCDR3 variant ANVGSSLGIAALD (Fab, V domains shown)
VH: EVQLVESGGGLVQPGGSLRLSCAASGFNIKDTYIHWVRQAPGKGLEWVARIYPTNGYTRYADSVKGRFTISADTSKNTAYLQMNSLRAEDTAVYYCANVGSSLGIAALDWGQGTLVTVSS
VL: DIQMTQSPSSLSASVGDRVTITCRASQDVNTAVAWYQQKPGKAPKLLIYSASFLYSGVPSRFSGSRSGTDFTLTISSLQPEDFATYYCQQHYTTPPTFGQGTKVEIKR
B24: Trastuzumab HCDR3 variant ARGGYGYYTWFDY (Fab, V domains shown)
VH: EVQLVESGGGLVQPGGSLRLSCAASGFNIKDTYIHWVRQAPGKGLEWVARIYPTNGYTRYADSVKGRFTISADTSKNTAYLQMNSLRAEDTAVYYCARGGYGYYTWFDYWGQGTLVTVSS
VL: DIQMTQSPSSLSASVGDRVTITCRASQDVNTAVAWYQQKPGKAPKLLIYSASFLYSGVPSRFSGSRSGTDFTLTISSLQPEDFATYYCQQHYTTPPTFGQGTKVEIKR
B25: Trastuzumab HCDR3 variant ARFGPAYFYGFYY (Fab, V domains shown)
VH: EVQLVESGGGLVQPGGSLRLSCAASGFNIKDTYIHWVRQAPGKGLEWVARIYPTNGYTRYADSVKGRFTISADTSKNTAYLQMNSLRAEDTAVYYCARFGPAYFYGFYYWGQGTLVTVSS
VL: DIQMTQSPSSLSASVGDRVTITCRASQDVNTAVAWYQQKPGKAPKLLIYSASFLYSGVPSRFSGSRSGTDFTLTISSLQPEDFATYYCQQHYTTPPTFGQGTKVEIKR
B26: Trastuzumab HCDR3 variant ARHYDYGRYYMDV (Fab, V domains shown)
VH: EVQLVESGGGLVQPGGSLRLSCAASGFNIKDTYIHWVRQAPGKGLEWVARIYPTNGYTRYADSVKGRFTISADTSKNTAYLQMNSLRAEDTAVYYCARHYDYGRYYMDVWGQGTLVTVSS
VL: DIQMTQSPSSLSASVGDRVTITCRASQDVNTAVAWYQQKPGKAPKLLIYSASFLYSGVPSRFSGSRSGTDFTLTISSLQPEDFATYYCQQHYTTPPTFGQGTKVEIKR
B27: Trastuzumab HCDR3 variant ARDGYPQYGGYGY (Fab, V domains shown)
VH: EVQLVESGGGLVQPGGSLRLSCAASGFNIKDTYIHWVRQAPGKGLEWVARIYPTNGYTRYADSVKGRFTISADTSKNTAYLQMNSLRAEDTAVYYCARDGYPQYGGYGYWGQGTLVTVSS
VL: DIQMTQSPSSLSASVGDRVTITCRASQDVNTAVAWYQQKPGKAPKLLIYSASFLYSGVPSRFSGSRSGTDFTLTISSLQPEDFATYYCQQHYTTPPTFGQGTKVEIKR
B28: Trastuzumab HCDR3 variant ARNSGTGIWAFAY (Fab, V domains shown)
VH: EVQLVESGGGLVQPGGSLRLSCAASGFNIKDTYIHWVRQAPGKGLEWVARIYPTNGYTRYADSVKGRFTISADTSKNTAYLQMNSLRAEDTAVYYCARNSGTGIWAFAYWGQGTLVTVSS
VL: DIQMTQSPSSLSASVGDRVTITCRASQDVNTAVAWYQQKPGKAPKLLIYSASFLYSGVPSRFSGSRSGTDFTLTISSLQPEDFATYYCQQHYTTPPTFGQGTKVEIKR
B29: Trastuzumab HCDR3 variant AKYTRGFSYGFGY (Fab, V domains shown)
VH: EVQLVESGGGLVQPGGSLRLSCAASGFNIKDTYIHWVRQAPGKGLEWVARIYPTNGYTRYADSVKGRFTISADTSKNTAYLQMNSLRAEDTAVYYCAKYTRGFSYGFGYWGQGTLVTVSS
VL: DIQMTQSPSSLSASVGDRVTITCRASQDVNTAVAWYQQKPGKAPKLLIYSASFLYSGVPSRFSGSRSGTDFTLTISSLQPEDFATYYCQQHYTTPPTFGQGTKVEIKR

For the assay, the target named is human epidermal growth factor receptor 2 (HER2) extracellular domain (human, UniProt P04626 23-629). Put plainly: SPR.
With B1, the Kd amounted to 60.3 nM and the “log(KD (M))” value is -7.22 log(M).
Consider B2, for which the Kd was 43.1 nM and 43 nM; the “log(KD (M))” value is -7.37 log(M).
Turning to B3, binding was put at a Kd of 231 nM and the “log(KD (M))” value is -6.64 log(M).
B4: the dissociation constant Kd came out at 154 nM and the “log(KD (M))” value was -6.81 log(M).
With B5, the Kd was 166 nM and the “log(KD (M))” value was -6.78 log(M).
As for B6, the Kd was 83.3 nM and 83.2 nM; the “log(KD (M))” value was -7.08 log(M).
B7: binding was characterised by a dissociation constant (Kd) of 67.6 nM and the “log(KD (M))” value was -7.17 log(M).
In the same order, the values of B8 are 38.3 nM and -7.42 log(M).
As to B9, the Kd stood at 45.5 nM and the “log(KD (M))” value was -7.34 log(M).
With B10, binding was characterised by a dissociation constant (Kd) of 205 nM and the “log(KD (M))” value is -6.69 log(M).
Consider B11, for which the Kd amounted to 33 nM and the “log(KD (M))” value is -7.48 log(M).
On to B12, for which the dissociation constant (Kd) is 67 nM and the “log(KD (M))” value is -7.17 log(M).
Turning to B13, the Kd came out at 128 nM and the “log(KD (M))” value is -6.89 log(M).
On to B14, for which the equilibrium dissociation constant (Kd) is 71.8 nM and the “log(KD (M))” value was -7.14 log(M).
For B15 the same measures were 125 nM and -6.9 log(M).
For B16 the same measures were 60.7 nM and -7.22 log(M).
For the molecule B17, binding was characterised by a dissociation constant (Kd) of 35 nM and the “log(KD (M))” value is -7.46 log(M).
For the molecule B18, the Kd is 189 nM and 188 nM; the “log(KD (M))” value is -6.72 log(M).
As to B19, the Kd was determined as 278 nM and the “log(KD (M))” value is -6.56 log(M).
Turning to B20, the Kd is 256 nM and the “log(KD (M))” value was -6.59 log(M).
As for B21, the Kd was 59.1 nM and the “log(KD (M))” value is -7.23 log(M).
For B22 the same measures were 188 nM and -6.72 log(M).
On to B23, for which binding was put at a Kd of 36.7 nM and the “log(KD (M))” value is -7.44 log(M).
In the same order, the values of B24 are 42.1 nM and -7.38 log(M).
In the same order, the values of B25 are 50.9 nM and -7.29 log(M).
Consider B26, for which the Kd worked out at 30.9 nM and the “log(KD (M))” value was -7.51 log(M).
In the same order, the values of B27 are 127 nM and -6.9 log(M).
In the same order, the values of B28 are 65 nM and -7.19 log(M).
As for B29, the affinity, expressed as Kd, was 37.8 nM and the “log(KD (M))” value is -7.42 log(M).
